Test results as given in paper PMC8400696.
Blank lines part the entries; values can stand above or below the molecule they belong to.

How the values were obtained:
[1] = test system: S11 (S11a) (DNA, aptamer) GGGAGACAAGAATAAACGCTCAAGGCAACATACTGTAAAGCTCAGGACTTCGACAGGAGGCTCACAACAGGC; assay: fluorescence titration of dye into aptamer, sigmoidal fit; details: binding solution (composition not given); 50 nM aptamer; ex 434 nm, em 610 nm; apparent
[2] = test system: S75 (S75a) (DNA, aptamer) GGGAGACAAGAATAAACGCTCAACTGGTATCTATATGAAGGTTGTAGCTTCGACAGGAGGCTCACAACAGGC; assay: as above; details: binding solution (composition not given); 50 nM aptamer; ex 434 nm, em 610 nm; apparent
[3] = test system: S51 (S51a) (DNA, aptamer) GGGAGACAAGAATAAACGCTCAAAGATAAAAAGGCTGTCTGAAAATTTTCGACAGGAGGCTCACAACAGGC; assay: as above; details: binding solution (composition not given); 50 nM aptamer; ex 434 nm, em 610 nm; apparent
[4] = target: MUC1 variable tandem repeat (VTR) peptide (UniProt P15941); assay: Ru(phen)2dppz fluorescence displacement; details: Ru dye; Ru displacement: 50 nM aptamer in binding solution (composition not given), excitation 434 nm, emission 610 nm; thermal assay: binding solution, 1 h ambient …
lipase = assay: Ru(phen)2dppz fluorescence displacement; details: no displacement up to 250 µM; aptamer given as variable region, S11b inferred; Ru displacement: 50 nM aptamer in binding solution (composition not given), excitation 434 nm, emission 610 nm; thermal assay: binding solution, 1 h ambient …
MUC1/Y 20mer peptide [5] = target: T1, MUC1/Y 20mer peptide (UniProt P15941-7); assay: Ru(phen)2dppz fluorescence displacement; 2 µM Ru dye; Kd only in Figure 2C; Ru displacement: 50 nM aptamer in binding solution (composition not given), excitation 434 nm, emission 610 nm; thermal assay: binding solution, 1 h ambient then SYBR Green I, 3-100 °C; cells: PBS, 4 °C, 1 h; details: predicted hairpin (m-fold)
T1 chain: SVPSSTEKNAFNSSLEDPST

MUC1/Y 20mer peptide [6] = target: T1, MUC1/Y 20mer peptide; assay: Ru(phen)2dppz fluorescence displacement; 1.5 µM Ru dye; Kd only in Figure 2C; Ru displacement: 50 nM aptamer in binding solution (composition not given), excitation 434 nm, emission 610 nm; thermal assay: binding solution, 1 h ambient then SYBR Green I, 3-100 °C; cells: PBS, 4 °C, 1 h; details: predicted hairpin (m-fold)
MUC1/Y 10mer peptide [7] = target: T2, MUC1/Y 10mer peptide (UniProt P15941-7); assay: thermal denaturation (SYBR Green I); 1:1000 aptamer:peptide; Tm 21 to 7 and 20 °C; Ru displacement: 50 nM aptamer in binding solution (composition not given), excitation 434 nm, emission 610 nm; thermal assay: binding solution, 1 h ambient then SYBR Green I, 3-100 °C; cells: PBS, 4 °C, 1 h
T2 chain: TEKNAFNSSL

MUC1/Y 20mer peptide [8] = target: T1, MUC1/Y 20mer peptide; assay: thermal denaturation (SYBR Green I); 1:1000 aptamer:peptide; Tm 21 to 16 °C; Ru displacement: 50 nM aptamer in binding solution (composition not given), excitation 434 nm, emission 610 nm; thermal assay: binding solution, 1 h ambient then SYBR Green I, 3-100 °C; cells: PBS, 4 °C, 1 h
MUC1/Y 10mer peptide [9] = target: T2, MUC1/Y 10mer peptide; assay: thermal denaturation (SYBR Green I); 1:1000 aptamer:peptide; Tm 20 and 45 to 26 °C; Ru displacement: 50 nM aptamer in binding solution (composition not given), excitation 434 nm, emission 610 nm; thermal assay: binding solution, 1 h ambient then SYBR Green I, 3-100 °C; cells: PBS, 4 °C, 1 h; details: hairpin (m-fold)
MUC1/Y 20mer peptide [10] = target: T1, MUC1/Y 20mer peptide; assay: thermal denaturation (SYBR Green I); 1:1000 aptamer:peptide; Tm 20 and 45 to 16 °C; Ru displacement: 50 nM aptamer in binding solution (composition not given), excitation 434 nm, emission 610 nm; thermal assay: binding solution, 1 h ambient then SYBR Green I, 3-100 °C; cells: PBS, 4 °C, 1 h; details: hairpin (m-fold)
MUC1/Y 20mer peptide [11] = target: T1, MUC1/Y 20mer peptide; assay: thermal denaturation (SYBR Green I); 1:1000 aptamer:peptide; Tm 35 to 30 °C; Ru displacement: 50 nM aptamer in binding solution (composition not given), excitation 434 nm, emission 610 nm; thermal assay: binding solution, 1 h ambient then SYBR Green I, 3-100 °C; cells: PBS, 4 °C, 1 h; details: predicted hairpin (m-fold)
MUC1/Y 10mer peptide [12] = target: T2, MUC1/Y 10mer peptide; assay: thermal denaturation (SYBR Green I); 1:1000 aptamer:peptide; Tm 35 to 43 °C; Ru displacement: 50 nM aptamer in binding solution (composition not given), excitation 434 nm, emission 610 nm; thermal assay: binding solution, 1 h ambient then SYBR Green I, 3-100 °C; cells: PBS, 4 °C, 1 h; details: predicted hairpin (m-fold)

Chain of MUC1 variable tandem repeat (VTR) peptide (P15941 whole entry): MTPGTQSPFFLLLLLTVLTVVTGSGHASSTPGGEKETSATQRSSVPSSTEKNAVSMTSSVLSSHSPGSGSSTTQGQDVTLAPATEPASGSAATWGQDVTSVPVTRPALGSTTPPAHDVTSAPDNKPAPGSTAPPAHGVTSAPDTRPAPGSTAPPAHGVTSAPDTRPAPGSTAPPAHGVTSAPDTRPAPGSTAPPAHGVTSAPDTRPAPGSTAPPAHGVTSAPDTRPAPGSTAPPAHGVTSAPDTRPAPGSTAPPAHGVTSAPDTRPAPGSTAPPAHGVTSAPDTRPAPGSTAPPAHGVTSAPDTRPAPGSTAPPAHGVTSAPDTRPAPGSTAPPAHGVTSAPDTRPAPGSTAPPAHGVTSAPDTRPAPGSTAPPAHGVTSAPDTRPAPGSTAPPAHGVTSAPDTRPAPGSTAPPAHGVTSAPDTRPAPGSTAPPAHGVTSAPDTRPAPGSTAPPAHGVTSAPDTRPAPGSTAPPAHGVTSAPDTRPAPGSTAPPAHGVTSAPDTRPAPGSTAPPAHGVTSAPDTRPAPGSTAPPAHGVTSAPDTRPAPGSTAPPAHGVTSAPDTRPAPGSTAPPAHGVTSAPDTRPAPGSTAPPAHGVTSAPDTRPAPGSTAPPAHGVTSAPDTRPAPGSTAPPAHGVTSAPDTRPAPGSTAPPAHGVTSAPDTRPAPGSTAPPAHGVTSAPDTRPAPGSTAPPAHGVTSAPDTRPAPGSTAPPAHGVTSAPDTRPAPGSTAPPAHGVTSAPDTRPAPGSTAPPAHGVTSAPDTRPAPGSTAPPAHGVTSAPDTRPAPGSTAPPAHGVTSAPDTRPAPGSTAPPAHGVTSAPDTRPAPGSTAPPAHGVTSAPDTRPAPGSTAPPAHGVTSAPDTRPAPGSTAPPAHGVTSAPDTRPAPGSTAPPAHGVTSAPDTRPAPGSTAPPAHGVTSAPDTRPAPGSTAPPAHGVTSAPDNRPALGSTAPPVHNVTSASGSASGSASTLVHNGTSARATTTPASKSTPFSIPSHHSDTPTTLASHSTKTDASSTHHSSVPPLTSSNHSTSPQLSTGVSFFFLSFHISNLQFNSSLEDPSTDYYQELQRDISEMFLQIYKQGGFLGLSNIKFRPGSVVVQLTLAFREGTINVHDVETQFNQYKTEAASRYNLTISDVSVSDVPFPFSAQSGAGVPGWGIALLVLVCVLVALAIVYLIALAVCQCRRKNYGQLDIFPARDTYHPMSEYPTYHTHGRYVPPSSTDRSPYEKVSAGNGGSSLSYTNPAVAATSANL

- Kd [1]: 350 nM
- Kd [2]: 240 nM
- Kd [3]: 440 nM
Molecule: [Ru+2].c1ccc2nc3c4cccnc4c4ncccc4c3nc2c1.c1cnc2c(c1)ccc1cccnc12.c1cnc2c(c1)ccc1cccnc12

Molecule: GGCAACATACTGTAAAGCTCAGGAC [S11b (S11 variable region)]
- binding signal (fold more peptide than MUC1/Y peptide) [4]: > 100
- Kd (lipase): > 250000 nM

B1: S75a (S75 full length) (ssDNA)
DNA: GGGAGACAAGAATAAACGCTCAACTGGTATCTATATGAAGGTTGTAGCTTCGACAGGAGGCTCACAACAGGC
- binding result (MUC1/Y 20mer peptide [5]): binds

B2: S51a (S51 full length) (ssDNA)
DNA: GGGAGACAAGAATAAACGCTCAAAGATAAAAAGGCTGTCTGAAAATTTTCGACAGGAGGCTCACAACAGGC
- binding result (MUC1/Y 20mer peptide [6]): binds

B3: S11b (S11 variable region) (ssDNA)
DNA: GGCAACATACTGTAAAGCTCAGGAC
- binding result (MUC1/Y 10mer peptide [7]): binds
- binding result (MUC1/Y 20mer peptide [8]): binds

B4: S11c (S11 hairpin region) (ssDNA)
DNA: ACTGTAAAGCTCAGGACTTCGACAGG
- binding result (MUC1/Y 10mer peptide [9]): binds
- binding result (MUC1/Y 20mer peptide [10]): binds

B5: S11a (S11 full length) (ssDNA)
DNA: GGGAGACAAGAATAAACGCTCAAGGCAACATACTGTAAAGCTCAGGACTTCGACAGGAGGCTCACAACAGGC
- binding result (MUC1/Y 20mer peptide [11]): binds
- binding result (MUC1/Y 10mer peptide [12]): binds
